System: T1, RSV attachment (G) glycoprotein of RSV strain A2
T1 sequence: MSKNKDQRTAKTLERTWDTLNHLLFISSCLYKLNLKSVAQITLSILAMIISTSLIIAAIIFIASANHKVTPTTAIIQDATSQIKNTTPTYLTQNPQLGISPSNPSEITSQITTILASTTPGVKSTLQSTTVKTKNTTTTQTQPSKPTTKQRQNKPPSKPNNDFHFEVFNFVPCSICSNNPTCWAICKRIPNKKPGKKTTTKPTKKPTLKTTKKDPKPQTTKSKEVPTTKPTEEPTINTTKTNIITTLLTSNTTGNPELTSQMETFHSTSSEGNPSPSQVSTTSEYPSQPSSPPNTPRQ

Substance: cathepsin L
- G protein cleavage on virions treated in vitro with 50 ng/ul cathepsin L at pH 5.5 (immunoblot): When incubated with cathepsin L after growth, the virus that was grown in the presence of a cathepsin L inhibitor contained a cleaved G protein
